Broadly, the Vmax is the rate approached at saturating substrate.

Substrate in this data set: N
The data set is described as follows: cells, lysate or membranes. The following applies: intact cells, total NH3 + NH4+, 0.1% DMSO, no inhibitor, whole-cell nitrite read-out.

Setting [1] is: 50 mM sodium phosphate pH 7.7, 2 mM MgCl2, 30°C, pH 7.7, 30.0 °C.
The mark [2] stands for this setting: 10 mM HEPES pH 7, 37°C, pH 7.0, 37.0 °C.

B1: AMO from Nitrosomonas europaea (Nitrosomonas europaea ATCC 19718) (protein)
chain 1: SIFRTEEILKAAKMPPEAVHMSRLIDAVYFPILIILLVGTYHMHFMLLAGDWDFWMDWKDRQWWPVVTPIVGITYCSAIMYYLWVNYRQPFGATLCVVCLLIGEWLTRYWGFYWWSHYPINFVTPGIMLPGALMLDFTLYLTRNWLVTALVGGGFFGLLFYPGNWPIFGPTHLPIVVEGTLLSMADYMGHLYVRTGTPEYVRHIEQGSLRTFGGHTTVIAAFFSAFVSMLMFTVWWYLGKVYCTAFFYVKGKRGRIVHRNDVTAFGEEGFPEGIK
chain 2: MTVTLDVSTVAAHGERSQEPFLRMRTVQWYDIKWGPEVTKVNENAKITGKFHLAEDWPRAAAQPDFSFFNVGSPSPVFVRLSTKINGHPWFISGPLQIGRDYEFEVNLRARIPGRHHMHAMLNVKDAGPIAGPGAWMNITGSWDDFTNPLKLLTGETIDSETFNLSNGIFWHVVWMSIGIFWIGVFTARPMFLPRSRVLLAYGDDLLMDPMDKKITWVLAILTLALVWGGYRYTENKHPYTVPIQAGQSKVAALPVAPNPVSIVITDANYDVPGRALRVTMEVTNNGDIPVTFGEFTTAGIRFINSTGRKYLDPQYPRELIAVGLNFDDESAIQPGQTKELKMEAKDALWEIQRLMALLGDPESRFGGLLMSWDAEGNRHINSIAGPVIPVFTKL
chain 3: MATTLGTSSASSVSSRGYDMSLWYDSKFYKFGMITMLLVAIFWVWYQRYFAYSHGMDSMEPEFDRVWMGLWRVHMAIMPLFALVTWGWILKTRDTKEQLDNLDPKLEIKRYFYYMMWLGVYIFGVYWGGSFFTEQDASWHQVIIRDTSFTPSHVVMFYGSFPMYIVCGVATYLYAMTRLPLFSRGISFPLVMAIAGPLMILPNVGLNEWGHAFWFMEELFSAPLHWGFVVLGWAGLFQGGVAAQIITRYSNLTDVVWNNQSKEILNNRIVA
Consider B1, for which, under setting [1], the Km is recorded as 520.3 (19.6) μM and the maximal velocity (Vmax) amounted to 0.324 µmol/min/mg.

B2: AMO from "Ca. Nitrosocosmicus franklandus" C13 (Candidatus Nitrosocosmicus franklandianus) (protein)
chain 1: MVWLRRTTHYLFIVVVAVNSTLLTINAGDYIFYTDWAWTSFVVFSISQSTMLVVGAIYYMLFTGVPGTATYYATIMTIYTWVAKGAWFALGYPYDFVVVPVWIPSAMLLDLAYWATRRNKHAAILIGGVLVGMSLPLFNMINLLLVADPLEMAFKYPRPTLPPYMTPIEPQVGKFYNSPVALGAGAGAVLCVPIAALGAKLNTWTYRWMAAWSKWD
chain 2: MNEKSGNKPAMVFLIVTFVAGASILASIIALLPLADGHGVQAQLQSRFVRINNEAFSAQSLNTGDTLVVTGELQSLVNRPMRGWISLFSESTNAGNRWEFVSRDPPGNIIEIQPQETVPYRLEAKALEPGVYHVHTQLNLASVGPGLGPGQTIQVVGDPILKPIPWNNIIYQSIIIAAGLGVTFATRPWQVI
chain 3: MAQMPALIPKEVEIQRLKKIYLMVIMLGSIAASVEVDNFVDGSLHQTAIRDSAFTPAHWWLYSHFIALPLGWGFVAMYDRRVPVLRGPNNSMNTGLKITIIGYLATMFTIGINEMWHFWFVEEIFSVPNHWMFNMGVVVAFMGALAYVVRVYARLVELGAETPARNPYVAEMYKLALEGKLYSRSIP
On to B2, for which, under setting [2], the Km was 26.7 (4.7) μM and the Vmax is 0.0641 µmol/min/mg.

These data come from publication PMC7170481, “Inhibition of Ammonia Monooxygenase from Ammonia-Oxidizing Archaea by Linear and Aromatic Alkynes” (Applied and Environmental Microbiology, 2020).
